Data: doi:10.1101/2023.12.14.571518 (bioRxiv, 2023)
Blank lines part the entries; values can stand above or below the binder they belong to.

Assays:
[1] = biological target: the molecule itself; test: cryo-EM structure
[2] = biological target: MZT2:GST-GCP2-NHD (human, UniProt Q6P582 1-158; Q9BSJ2 1-110); test: pull-down
MZT2:GST-GCP2-NHD, sequence (Q6P582 whole entry, chain 1 of 2): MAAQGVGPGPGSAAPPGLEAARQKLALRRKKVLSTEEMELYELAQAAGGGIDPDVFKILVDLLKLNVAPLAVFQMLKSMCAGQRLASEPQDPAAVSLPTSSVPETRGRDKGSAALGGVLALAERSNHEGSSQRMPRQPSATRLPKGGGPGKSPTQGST
MZT2:GST-GCP2-NHD, sequence (Q9BSJ2 1-110, chain 2 of 2): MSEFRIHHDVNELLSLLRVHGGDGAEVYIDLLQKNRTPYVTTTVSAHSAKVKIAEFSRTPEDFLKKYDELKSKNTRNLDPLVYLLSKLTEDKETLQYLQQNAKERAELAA

Binder: TVSPTRARNMKDFENQITELKKENFNLKLRIYFLEERMQQEFHGPTEHIY (domain or fragment, human, UniProt Q96SN8 51-100, looked up) [CDK5RAP2(51-100)]
binding result [1]: binds

Kd [2]: ≥ 10 µM
B1: CDK5RAP2(44-93) (domain or fragment, human)
chain: SNIGSGGTPSTGSSLPNVSEETVSPTRARNMKDFENQITELKKENFNLKLRIYFLEERMQQEFH
